# Reference: a protein production outcome set (Wang et al. 2014)
# Experiment: label from the status in PepcDB records
row,Sequence,protein production
1,MSVQNIVNINESNLQQTLEQSMTTPVLFYFWSERSQHCLQLTPVLESLAAQYHGQFILAKLDCDAEQMIAAQFGLRAIPTVYLFQNGQPVDGFQGPQPEEAIRALLDKVLPREEELKAQQAMQLMQEGNYIDALPLLKDAWQLSSQNSEIGLLLAEAQIALNRSEEAEAVLKTIPLQDQDTRYQGLVAQIELLKQAADTPEIQQLQQQVADNPQDAALATQLALQLHQVGRNEEALELLFSHLRKDLTAAEGQTRKTFQEILAALGTGDALASKYRRQLYALLY,not failed
2,CKLCLGEYPVEQMTTIAQCQCIFCTLCLKQYVELLIKEGLETAISCPDAACPKQGHLQENEIECMVAAEIMQRYKKLQFER,not failed
3,MPLSYSSPSLSEERSDDPSKYDGDFGVPQICFCGKQLELVERLIGDQKKTFLKCPMSGQDDNYHVDKGWDLVVHEQCFCIDKRFGEHRELIQNAFKFGGDSNRLQINQIRAEIEDLKDRLDKKDAEITRLMDALGKK,failed
4,KEAGSQIMKFEVQDASPTIATELNLVTGEQVYYIKRLRFIEDNAAQLEETWMSVARFPDLTVSHMQKSKFSYIENECGIKIIGTFETFSPTFPTPEIASILRISPRDPILKIQTQAVDSNSIPLDYSLLYSN,failed
5,MERQDDPDAIQRLLVPTDLSASALRAFRHAVALARLYDAAIDVLHVIESVPYVALTPTDRLSLGATTLLERRGRRRLRAFLQEGEAAGVQVQSHIMRGAAADQISRFANQGDVDLMVLSAHGSDAEEGPLGPVGTRVLGRVTRPLFLVRASGPSLLGPPDDAA,failed
6,MDFKSSDAIRGPRTEDHLPHTAQAAVKIVIVGGFGVGKTTMVGSVSEIRPLTTEETMTQMGIGVDDNYGSESKTATTVAMDFGRISITEQLVLYLFGTPGQERFWFLWNGLFEGALGAVVLIDTRRLEVSFDVIGRLEERGVPFVIAVNDFPDAPRYPVEDLRGALDLTEDIPIVKCDARRRASSREVLMTLMHFLHSLAVSKTSVLEHHHHHH,failed
7,MPKSPHKLFKANSFWKENNLILREIKHFRKIAILAVIFSFLAASFEGVSIGFLLSFLQKLTSPNDPIQTGISWVDMILAADAWPIPPIYRISLLILLSTWMRATFNYFGGVYTESAQLNLADRLHKQIFEQLQALRLSYFAQTRSGELINTITTEIERIKQGFSGLAFVLTRIMTVCVYFVVMFSISWQLSIISVLIFLLLAVGLSTLNKRVRETSFGISHANAQFTAVAVEFINGIRTIQAFGTQEFERQRFYKASTNQLNAAIKVVLAWTLVKPIAEGIATTVLISLIVISFATFTLPVASLLTFFFVLVRVIPNIQDINGTVAFLSTLQGSSENIKNILQTNNKPYLKNGKLHFQGLKRSIDLVSVDFGYTADNLVLNNITLTIERGKTTALVGASGAGKTTLADLIPRFYDPTEGQILVDGLDVQYFEINSLRRKMAVVSQDTFIFNTSIRDNIAYGTSGASEAEIREVARLANALQFIEEMPEGFDTKLGDRGVRLSGGQRQRIAIARALLRDPEILILDEATSALDSVSERLIQESIEKLSVGRTVIAIAHRLSTIAKADKVVVMEQGRIVEQGNYQELLEQRGKLWKYHQMQHESGQTNS,failed
8,MSRPDDIDVRPIAEAETADWIRALNTGFLRSPEVSEREVADRSSYLVPARTLGAFDNGRCVATFRSFPQELTAVGGASVPADAISNVTVTATHRRRGLLTRMMAQDLAAAKERGDVVATLIAAEYPIYGRYGFGAATHSTEWTIDVPRTGLDPRWSGPGDGGRIDLVDGEDVRKAGPELHERLRRTQPGAVSRDERWWQVHTGVVRLDRSPWTEPFYAVYRSASGEVEGLVSYECDDHWGDAKQPQNTAKVNWLIATTPAAERALWHYLCSIDWITKVRTGWRAPDDLLPHFLPDPRAARVTTHADWLWVRILDVVRALEARTYDGSGTLVLDVVDRHGLAGGRYRLTVGPDGAVCEPTTRDAGLTLDVGELAALWLGDASAVRLAALGRVREQQEGAASVADALLRTSGRPWCPDMF,not failed
9,TLHKERRIGRLSVLLLLNEAEESTQVEELERDGWKVCLGKVGSMDAHKVVAAIETASKKSGVIQSEGYRESHALYHATMEALHGVTRGEMLLGSLLRTVGLRFAVLRGNPYESEAEGDWIAVSLYGTIGAPIKGLEHETFGVGINHI,not failed
10,ASPVENKEVYQCRLCNAKLSSLLEQGSHERLCRNAAVCPYCSLRFFSPELKQEHESKCEYKKLTCLECMRTFKSSFSIWRHQVEVHNQNNMAPT,not failed
11,MERAFMLNGLLVNLVSGLIVMFISAILYYRKPERKWLLIIIVIGMMSVVTAGIRMLVA,failed
12,MRLLAKIICLMLWAICVAEDCNELPPRRNTEILTGSWSDQTYPEGTQAIYKCRPGYRSLGNVIMVCRKGEWVALNPLRKCQKRPCGHPGDTPFGTFTLTGGNVFEYGVKAVYTCNEGYQLLGEINYRECDTDGWTNDIPICEVVKCLPVTAPENGKIVSSAMEPDREYHFGQAVRFVCNSGYKIEGDEEMHCSDDGFWSKEKPKCVEISCKSPDVINGSPISQKIIYKENERFQYKCNMGYEYSERGDAVCTESGWRPLPSCEEKSCDNPYIPNGDYSPLRIKHRTGDEITYQCRNGFYPATRGNTAKCTSTGWIPAPRCTLKPCDYPDIKHGGLYHENMRRPYFPVAVGKYYSYYCDEHFETPSGSYWDHIHCTQDGWSPAVPCLRKCYFPYLENGYNQNYGRKFVQGKSIDVACHPGYALPKAQTTVTCMENGWSPTPRCIRVKTCSKSSIDIENGFISESQYTYALKEKAKYQCKLGYVTADGETSGSITCGKDGWSAQPTCIKSCDIPVFMNARTKNDFTWFKLNDTLDYECHDGYESNTGSTTGSIVCGYNGWSDLPICYERECELPKIDVHLVPDRKKDQYKVGEVLKFSCKPGFTIVGPNSVQCYHFGLSPDLPICKEQVQSCGPPPELLNGNVKEKTKEEYGHSEVVEYYCNPRFLMKGPNKIQCVDGEWTTLPVCIVEESTCGDIPELEHGWAQLSSPPYYYGDSVEFNCSESFTMIGHRSITCIHGVWTQLPQCVAIDKLKKCKSSNLIILEEHLKNKKEFDHNSNIRYRCRGKEGWIHTVCINGRWDPEVNCSMAQIQLCPPPPQIPNSHNMTTTLNYRDGEKVSVLCQENYLIQEGEEITCKDGRWQSIPLCVEKIPCSQPPQIEHGTINSSRSSQESYAHGTKLSYTCEGGFRISEENETTCYMGKWSSPPQCEGLPCKSPPEISHGVVAHMSDSYQYGEEVTYKCFEGFGIDGPAIAKCLGEKWSHPPSCIKTDCLSLPSFENAIPMGEKKDVYKAGEQVTYTCATYYKMDGASNVTCINSRWTGRPTCRDTSCVNPPTVQNAYIVSRQMSKYPSGERVRYQCRSPYEMFGDEEVMCLNGNWTEPPQCKDSTGKCGPPPPIDNGDITSFPLSVYAPASSVEYQCQNLYQLEGNKRITCRNGQWSEPPKCLHPCVISREIMENYNIALRWTAKQKLYSRTGESVEFVCKRGYRLSSRSHTLRTTCWDGKLEYPTCAKR,failed
13,MVSRLEHPAGGYKKVFESCEELAEPIPAHVSGKIPAWLSGSLLRMGPGLFEIGDEPFNHLFDGQALIHKFDLKDGRVTYHRKFIRTDAYVRAMTEKRVVITELGTAAYPDPCKNIFSRFFTYFQGTEVTDNCSVNIYPIGEDFYACTETNFITKVNPDTLETIKKVDLCNYLSVNGLTAHPHIEADGTVYNIGNCFGKNMSLAYNIVKIPPLQEEKSDPLAMSKVLVQFPSSERFKPSYVHSFGMTENHFVFVETPVKINLLKFLTSWSIRGSNYMDCFESNDRMGTWFHLAAKNPGKYINNPSQ,failed
